Measurements published in patent US20210283233A1.

Target: T1, rPfSEP-1A (recombinant polypeptide encoded by nt 2,431-3,249 of PF3D7_1021800, aa 810-1083 of PfSEP-1)
T1 chain: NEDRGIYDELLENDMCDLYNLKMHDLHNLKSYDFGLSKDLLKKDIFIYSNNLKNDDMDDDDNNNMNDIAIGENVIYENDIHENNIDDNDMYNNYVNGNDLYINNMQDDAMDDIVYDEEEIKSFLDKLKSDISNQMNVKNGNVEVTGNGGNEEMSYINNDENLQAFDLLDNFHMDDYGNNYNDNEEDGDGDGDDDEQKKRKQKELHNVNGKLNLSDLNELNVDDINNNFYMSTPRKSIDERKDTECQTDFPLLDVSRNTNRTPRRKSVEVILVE

B1: rPfCDPK-5 (recombinant Plasmodium falciparum calcium-dependent protein kinase 5, PF3D7_1337800) (protein)
chain: MKETEVEDMDTNRKDGKIKKKEKIVNMKNEEVKSTTKSTLADSDEDYSIITLCTKCLSKKLEDNKNRIILDSKAFKDNRLKGRCSVSSNEDPLDNKLNLSPYFDRSQIIQEIILMNNDELSDVYEIDRYKLGKGSYGNVVKAVSKRTGQQRAIKIIEKKKIHNIERLKREILIMKQMDHPNIIKLYEVYEDNEKLYLVLELCDGGELFDKIVKYGSFSEYEAYKIMKQIFSALYYCHSKNIMHRDLKPENILYVDNTEDSPIQIIDWGFASKCMNNHNLKSVVGTPYYIAPEILRGKYDKRCDIWSSGVIMYILLCGYPPFNGKNNDEILKKVEKGEFVFDSNYWARVSDDAKDLICQCLNYNYKERIDVEQVLKHRWFKKFKSNNLIINKTLNKTLIEKFKEFHKLCKIKKLAVTCIAYQLNEKDIGKLKKTFEAFDHNGDGVLTISEIFQCLKVNDNEFDRELYFLLKQLDTDGNGLIDYTEFLAACLDHSIFQQDVICRNAFNVFDLDGDGVITKDELFKILSFSAVQVSFSKEIIENLIKEVDSNNDGFIDYDEFYKMMTGVKE
  phosphorylation: rPfCDPK-5 was found to phosphorylate rPfSEP-1A
